Source: IntAct's records for PubMed 17012248

B1: Sialic acid-binding Ig-like lectin 14 (Homo sapiens), Q08ET2 (parent)
chain: MLPLLLLPLLWGGSLQEKPVYELQVQKSVTVQEGLCVLVPCSFSYPWRSWYSSPPLYVYWFRDGEIPYYAEVVATNNPDRRVKPETQGRFRLLGDVQKKNCSLSIGDARMEDTGSYFFRVERGRDVKYSYQQNKLNLEVTALIEKPDIHFLEPLESGRPTRLSCSLPGSCEAGPPLTFSWTGNALSPLDPETTRSSELTLTPRPEDHGTNLTCQVKRQGAQVTTERTVQLNVSYAPQNLAISIFFRNGTGTALRILSNGMSVPIQEGQSLFLACTVDSNPPASLSWFREGKALNPSQTSMSGTLELPNIGAREGGEFTCRVQHPLGSQHLSFILSVQRSSSSCICVTEKQQGSWPLVLTLIRGALMGAGFLLTYGLTWIYYTRCGGPQQSRAERPG

Variants of: B1
Conditions: with tyobp_human TYROBP

Row | Variant | effect of a mutation on the interaction
1 | MLPLLLLPLLWGGSLQEKPVYELQVQKSVTVQEGLCVLVPCSFSYPWRSWYSSPPLYVYWFRDGEIPYYAEVVATNNPDRRVKPETQGRFRLLGDVQKKNCSLSIGDARMEDTGSYFFRVERGRDVKYSYQQNKLNLEVTALIEKPDIHFLEPLESGRPTRLSCSLPGSCEAGPPLTFSWTGNALSPLDPETTRSSELTLTPRPEDHGTNLTCQVKRQGAQVTTERTVQLNVSYAPQNLAISIFFRNGTGTALRILSNGMSVPIQEGQSLFLACTVDSNPPASLSWFREGKALNPSQTSMSGTLELPNIGAREGGEFTCRVQHPLGSQHLSFILSVQRSSSSCICVTEKQQGSWPLVLTLIAGALMGAGFLLTYGLTWIYYTRCGGPQQSRAERPG [R362A] | decreasing interaction
